# Data as given in US6403087 (Biogen, dated 2002).
# B1: soluble TNF-R fusion protein (p55-TNF-R-Fc) (Fc fusion, UniProt P19438 30-211, looked up, not shown: a dimerising Fc or GST)
# chain: LVPHLGDREKRDSVCPQGKYIHPQNNSICCTKCHKGTYLYNDCPGPGQDTDCRECESGSFTASENHLRHCLSCSKCRKEMGQVEISSCTVDRDTVCGCRKNQYRHYWSENLFQCFNCSLCLNGTVHLSCQEKQNTVCTCHAGFFLRENECVSCSNCKKSLECTKLCLPQIENVKGTEDSGTT
# B2: soluble human LT-β receptor-immunoglobulin Fc fusion protein (hLT-β-R-Fc) (Fc fusion, not shown: a dimerising Fc or GST)
# chain: QAVPPYASENQTCRDQEKEYYEPQHRICCSRCPPGTYVSAKCSRIRDTVCATCAENSYNEHWNYLTICQLCRPCDPVMGLEEIAPCTSKRKTQCRCQPGMFCAAWALECTHCELLSDCPPGTEAELKDEVGKGNNHCVPCKAGHFQNTSSPSARCQPHTRCENQGLVEAAPGTAQSDTTCKNPLEPLPPEMSGT
# Columns and labels:
# Assay in all cases: cell-based or functional assay
# [1] = target: T1, soluble human LT-α1/β2 ligand (hLT-α1/β2) (human, UniProt P01374 35-205; Q06643 49-244, limits assumed)
# T1 sequence (looked up) 1: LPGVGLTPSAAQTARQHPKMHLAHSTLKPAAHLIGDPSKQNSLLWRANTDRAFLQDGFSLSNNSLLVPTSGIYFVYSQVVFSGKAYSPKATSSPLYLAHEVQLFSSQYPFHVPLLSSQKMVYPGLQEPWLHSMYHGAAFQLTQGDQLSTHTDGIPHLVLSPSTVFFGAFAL
# T1 sequence (looked up) 2: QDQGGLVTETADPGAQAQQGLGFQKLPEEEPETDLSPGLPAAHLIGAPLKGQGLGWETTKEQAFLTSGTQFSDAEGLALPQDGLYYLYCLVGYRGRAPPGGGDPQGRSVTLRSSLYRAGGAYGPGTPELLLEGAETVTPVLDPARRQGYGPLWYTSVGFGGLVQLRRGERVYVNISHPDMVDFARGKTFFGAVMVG
# hLT-α = target: T2, hLT-α (human, UniProt P01374 35-205, limits assumed)
# T2 sequence (looked up): T1 sequence (looked up) 1
# hTNF = hTNF (human, UniProt P01375 77-233)
# Sequence of hTNF (P01375 77-233 limits assumed): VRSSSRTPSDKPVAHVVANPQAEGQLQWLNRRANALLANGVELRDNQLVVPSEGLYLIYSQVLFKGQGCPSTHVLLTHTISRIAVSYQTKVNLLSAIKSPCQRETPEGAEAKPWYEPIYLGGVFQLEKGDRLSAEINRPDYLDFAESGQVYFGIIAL
binder,measurement,setting,value
B1,"Concentration of Cytotoxic Agent (ng/ml) Resulting in 50% Growth Inhibition of HT29 cells, in the presence of 5 µg/ml p55-TNF-R-Fc",[1],5 ng/mL
same,"Concentration of Cytotoxic Agent (ng/ml) Resulting in 50% Growth Inhibition of HT29 cells, in the presence of 5 µg/ml p55-TNF-R-Fc",hLT-α,> 1000 ng/mL
B2,"Concentration of Cytotoxic Agent (ng/ml) Resulting in 50% Growth Inhibition of HT29 cells, in the presence of 5 µg/ml LT-β-R-Fc",[1],> 200 ng/mL
same,"Concentration of Cytotoxic Agent (ng/ml) Resulting in 50% Growth Inhibition of HT29 cells, in the presence of 5 µg/ml LT-β-R-Fc",hTNF,0.08 ng/mL
same,"Concentration of Cytotoxic Agent (ng/ml) Resulting in 50% Growth Inhibition of HT29 cells, in the presence of 5 µg/ml LT-β-R-Fc",hLT-α,3 ng/mL
